# Assay results as given in paper PMC12749725 (Nature Communications, 2025).
# Values joined by “and” are separate entries in the source; they are usually repeats but may differ in a detail not shown here. Equal entries are not always repeated.
# T1: BAI3 extracellular domain (ECD) (human, UniProt O60242 25-880)
# T1 sequence (looked up): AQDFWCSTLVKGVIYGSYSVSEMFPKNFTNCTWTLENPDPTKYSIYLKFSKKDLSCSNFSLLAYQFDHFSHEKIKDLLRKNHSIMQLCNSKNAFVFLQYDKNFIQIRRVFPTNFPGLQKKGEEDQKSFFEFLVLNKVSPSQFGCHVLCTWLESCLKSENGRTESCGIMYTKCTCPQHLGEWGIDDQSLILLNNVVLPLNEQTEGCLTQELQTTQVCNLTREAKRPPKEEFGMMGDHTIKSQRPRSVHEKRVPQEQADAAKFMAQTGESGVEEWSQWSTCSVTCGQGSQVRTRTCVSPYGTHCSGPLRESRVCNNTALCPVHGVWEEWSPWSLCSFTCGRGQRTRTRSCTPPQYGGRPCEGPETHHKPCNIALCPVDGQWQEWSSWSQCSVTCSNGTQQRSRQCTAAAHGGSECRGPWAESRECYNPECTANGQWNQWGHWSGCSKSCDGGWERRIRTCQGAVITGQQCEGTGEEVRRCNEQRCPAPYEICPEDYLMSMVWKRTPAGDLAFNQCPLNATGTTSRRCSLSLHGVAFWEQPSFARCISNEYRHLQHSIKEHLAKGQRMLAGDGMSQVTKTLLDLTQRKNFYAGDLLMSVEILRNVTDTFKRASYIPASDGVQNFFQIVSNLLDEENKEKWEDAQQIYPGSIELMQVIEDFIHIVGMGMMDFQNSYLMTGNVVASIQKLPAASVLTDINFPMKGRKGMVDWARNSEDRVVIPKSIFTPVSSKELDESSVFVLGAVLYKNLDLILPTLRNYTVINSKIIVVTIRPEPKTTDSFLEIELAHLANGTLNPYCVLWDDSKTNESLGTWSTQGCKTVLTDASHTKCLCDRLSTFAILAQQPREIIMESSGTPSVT
# T2: BAI3_eCUB^253 (C-terminal extended CUB domain of BAI3, aa. 25-253) (human, UniProt O60242 25-253)
# T2 sequence (looked up): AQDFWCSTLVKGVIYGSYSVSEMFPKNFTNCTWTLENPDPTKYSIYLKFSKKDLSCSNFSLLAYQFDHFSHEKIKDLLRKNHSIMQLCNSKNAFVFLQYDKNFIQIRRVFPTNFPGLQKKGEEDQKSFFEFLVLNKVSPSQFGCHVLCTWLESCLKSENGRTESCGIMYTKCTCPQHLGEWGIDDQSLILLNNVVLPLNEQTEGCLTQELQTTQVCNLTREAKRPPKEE
# How the values were obtained:
# [1] = target: T1, BAI3 extracellular domain (ECD); experiment: ITC
# [2] = target: T2, BAI3_eCUB^253 (C-terminal extended CUB …); experiment: ITC
# SEC-MALS = target: the molecule itself; experiment: SEC-MALS
# SEC [3] = target: the molecule itself; experiment: SEC
# SEC [4] = target: the molecule itself; experiment: SEC; remark: listed apart in the source
binder,measurement,setting,value
"C1ql1_gC1q (globular C1q domain of mouse C1ql1), wild type (domain or fragment) ATYTTVPRVAFYAGLKNPHEGYEVLKFDDVVTNLGNNYDAASGKFTCNIPGTYFFTYHVLMRGGDGTSMWADLCKNGQVRASAIAQDADQNYDYASNSVILHLDAGDEVFIKLDGGKAHGGNSNKYSTFSGFIIYSD",Kd,[1],~1100 nM
same,Kd,[2],~150 nM
same,stoichiometry N,[2],3 eCUB molecules per gC1q trimer
same,stoichiometry N,SEC-MALS,6 and 3
"C1ql1_gC1q D208N (domain or fragment, mouse) TTVPRVAFYAGLKNPHEGYEVLKFDDVVTNLGNNYDAASGKFTCNIPGTYFFTYHVLMRGGDGTSMWADLCKNGQVRASAIAQNADQNYDYASNSVILHLDAGDEVFIKLDGGKAHGGNSNKYSTFSGFIIYSD",binding result,SEC [3],binds
same,fold weaker binding than wild type,[2],~9 fold
"C1ql1_gC1q A209S (domain or fragment, mouse) TTVPRVAFYAGLKNPHEGYEVLKFDDVVTNLGNNYDAASGKFTCNIPGTYFFTYHVLMRGGDGTSMWADLCKNGQVRASAIAQDSDQNYDYASNSVILHLDAGDEVFIKLDGGKAHGGNSNKYSTFSGFIIYSD",binding result,[2],binds
"C1ql1_gC1q D210N (domain or fragment, mouse) TTVPRVAFYAGLKNPHEGYEVLKFDDVVTNLGNNYDAASGKFTCNIPGTYFFTYHVLMRGGDGTSMWADLCKNGQVRASAIAQDANQNYDYASNSVILHLDAGDEVFIKLDGGKAHGGNSNKYSTFSGFIIYSD",binding result,[2],binds
"C1ql1_gC1q D214N (domain or fragment, mouse) TTVPRVAFYAGLKNPHEGYEVLKFDDVVTNLGNNYDAASGKFTCNIPGTYFFTYHVLMRGGDGTSMWADLCKNGQVRASAIAQDADQNYNYASNSVILHLDAGDEVFIKLDGGKAHGGNSNKYSTFSGFIIYSD",binding result,[2],binds
"full-length C1ql1, bacteria-expressed (without signal peptide) (natural protein, mouse, UniProt O88992 17-258, looked up) GPDGHYEMLGTCRMVCDPYPARGPGAGARSDGGDALSEQSGAPPPSTLVQGPQGKPGRTGKPGPPGPPGDRGPPGPVGPPGEKGEPGKPGPPGLPGSGGSGAISTATYTTVPRVAFYAGLKNPHEGYEVLKFDDVVTNLGNNYDAASGKFTCNIPGTYFFTYHVLMRGGDGTSMWADLCKNGQVRASAIAQDADQNYDYASNSVILHLDAGDEVFIKLDGGKAHGGNSNKYSTFSGFIIYSD",stoichiometry N,SEC [4],6 and 3
